Assay results published in paper PMC9482650, “Quantitative fragmentomics allow affinity mapping of interactomes” (Nature Communications, 2022).

T1: PDZRN3_1, Q9UPQ7
T1 sequence (Q9UPQ7 244-349, limits assumed, looked up): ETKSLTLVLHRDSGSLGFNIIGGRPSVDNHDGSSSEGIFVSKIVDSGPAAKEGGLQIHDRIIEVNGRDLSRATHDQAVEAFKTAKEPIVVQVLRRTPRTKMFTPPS

T2: ARHGEF11, O15085
T2 sequence (O15085 42-136, limits assumed, looked up): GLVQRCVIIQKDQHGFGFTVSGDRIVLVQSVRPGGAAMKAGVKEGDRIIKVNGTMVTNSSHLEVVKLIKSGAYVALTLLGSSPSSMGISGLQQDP

T3: LIN7B, Q9HAP6
T3 sequence (Q9HAP6 88-185, limits assumed, looked up): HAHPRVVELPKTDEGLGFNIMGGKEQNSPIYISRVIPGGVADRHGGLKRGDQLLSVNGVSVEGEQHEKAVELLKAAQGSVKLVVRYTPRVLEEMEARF

T4: DLG3_3, Q92796
T4 sequence (Q92796 374-475, limits assumed, looked up): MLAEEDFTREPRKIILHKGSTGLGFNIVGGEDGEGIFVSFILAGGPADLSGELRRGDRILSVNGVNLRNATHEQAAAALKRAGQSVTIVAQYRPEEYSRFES

T5: SIPA1L2, Q9P2F8
T5 sequence (Q9P2F8 945-1036, limits assumed, looked up): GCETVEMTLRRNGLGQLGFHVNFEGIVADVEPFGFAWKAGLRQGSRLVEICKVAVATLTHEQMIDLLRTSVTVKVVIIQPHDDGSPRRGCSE

T6: MPP7, Q5T2T1
T6 sequence (Q5T2T1 134-230, limits assumed, looked up): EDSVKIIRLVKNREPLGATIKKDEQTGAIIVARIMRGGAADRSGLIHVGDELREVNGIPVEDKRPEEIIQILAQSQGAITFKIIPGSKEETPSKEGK

T7: DFNB31_1, Q9P202
T7 sequence (Q9P202 135-233, limits assumed, looked up): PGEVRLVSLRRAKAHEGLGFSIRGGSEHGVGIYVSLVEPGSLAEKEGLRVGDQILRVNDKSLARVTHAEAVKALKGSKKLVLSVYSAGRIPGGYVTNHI

T8: SNTA1, Q13424
T8 sequence (Q13424 82-180, limits assumed, looked up): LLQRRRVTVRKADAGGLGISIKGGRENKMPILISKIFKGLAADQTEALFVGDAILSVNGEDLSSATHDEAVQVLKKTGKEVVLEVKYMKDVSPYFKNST

T9: LIN7C, Q9NUP9
T9 sequence (Q9NUP9 88-185, limits assumed, looked up): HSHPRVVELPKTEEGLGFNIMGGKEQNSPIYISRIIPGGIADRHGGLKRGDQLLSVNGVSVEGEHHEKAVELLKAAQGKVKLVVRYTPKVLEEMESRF

T10: DFNB31_3, Q9P202
T10 sequence (Q9P202 811-907, limits assumed, looked up): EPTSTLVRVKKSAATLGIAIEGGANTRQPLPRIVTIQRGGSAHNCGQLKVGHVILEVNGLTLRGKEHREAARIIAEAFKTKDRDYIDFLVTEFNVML

T11: GRIP1_4, Q9Y3R0
T11 sequence (Q9Y3R0 467-571, limits assumed, looked up): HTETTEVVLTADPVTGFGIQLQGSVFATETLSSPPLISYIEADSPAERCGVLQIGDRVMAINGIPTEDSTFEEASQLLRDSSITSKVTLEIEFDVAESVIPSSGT

T12: HTRA3, P83110
T12 sequence (P83110 354-453, limits assumed, looked up): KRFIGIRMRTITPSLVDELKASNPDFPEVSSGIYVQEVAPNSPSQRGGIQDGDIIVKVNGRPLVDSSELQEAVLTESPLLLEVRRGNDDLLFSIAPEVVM

T13: GRIP1_3, Q9Y3R0
T13 sequence (Q9Y3R0 247-346, limits assumed, looked up): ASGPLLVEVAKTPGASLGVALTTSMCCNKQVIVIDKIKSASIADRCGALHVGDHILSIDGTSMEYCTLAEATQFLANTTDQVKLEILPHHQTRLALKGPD


Tests used:
Assay in all cases: holdup assay
Parameters in all cases: key: below the threshold = too weak to quantify, mostly under pKd 3.1 to 4
Details in all cases: plain residues with an end cap or a label only (N-terminal biotin on a linker: ado-ado)
Inadl_2, Q8NI35 = biological target: Inadl_2, Q8NI35
Sequence of Inadl_2, Q8NI35 (Q8NI35 238-335): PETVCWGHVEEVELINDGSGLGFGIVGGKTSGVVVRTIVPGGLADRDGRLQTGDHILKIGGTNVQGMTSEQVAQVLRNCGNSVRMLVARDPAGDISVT

GRID2IP_1, A4D2P6 = biological target: GRID2IP_1, A4D2P6
Sequence of GRID2IP_1, A4D2P6 (A4D2P6 1-87): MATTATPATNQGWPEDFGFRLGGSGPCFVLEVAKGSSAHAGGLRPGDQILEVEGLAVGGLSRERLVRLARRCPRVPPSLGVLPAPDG

PDZRN3_1, Q9UPQ7 = biological target: T1, PDZRN3_1, Q9UPQ7
GRIP2_5, Q9C0E4 = biological target: GRIP2_5, Q9C0E4
Sequence of GRIP2_5, Q9C0E4 (Q9C0E4 544-642): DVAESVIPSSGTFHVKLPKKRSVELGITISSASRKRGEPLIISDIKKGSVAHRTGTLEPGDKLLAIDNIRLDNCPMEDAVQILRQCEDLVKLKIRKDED

ARHGEF11, O15085 = biological target: T2, ARHGEF11, O15085
LIN7B, Q9HAP6 = biological target: T3, LIN7B, Q9HAP6
NHERF4_2, Q86UT5 = biological target: NHERF4_2, Q86UT5
Sequence of NHERF4_2, Q86UT5 (Q86UT5 220-308): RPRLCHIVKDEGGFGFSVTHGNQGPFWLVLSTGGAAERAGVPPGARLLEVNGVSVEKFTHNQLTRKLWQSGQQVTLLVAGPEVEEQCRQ

DLG3_3, Q92796 = biological target: T4, DLG3_3, Q92796
GIPC2, Q8TF65 = biological target: GIPC2, Q8TF65
Sequence of GIPC2, Q8TF65 (Q8TF65 112-203): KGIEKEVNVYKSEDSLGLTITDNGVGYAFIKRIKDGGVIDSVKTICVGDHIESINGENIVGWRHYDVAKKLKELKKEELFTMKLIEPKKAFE

MAGI2_4, Q86UL8 = biological target: MAGI2_4, Q86UL8
Sequence of MAGI2_4, Q86UL8 (Q86UL8 772-865): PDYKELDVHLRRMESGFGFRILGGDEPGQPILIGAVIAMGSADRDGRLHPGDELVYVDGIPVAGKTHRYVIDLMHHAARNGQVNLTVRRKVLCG

SIPA1L2, Q9P2F8 = biological target: T5, SIPA1L2, Q9P2F8
GOPC, Q9HD26 = biological target: GOPC, Q9HD26
GORASP2, Q9H8Y8 = biological target: GORASP2, Q9H8Y8
FRMPD4, Q14CM0 = biological target: FRMPD4, Q14CM0
Sequence of FRMPD4, Q14CM0 (Q14CM0 67-160): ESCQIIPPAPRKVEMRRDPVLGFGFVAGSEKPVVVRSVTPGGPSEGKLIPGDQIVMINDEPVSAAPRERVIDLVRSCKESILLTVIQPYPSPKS

MPP7, Q5T2T1 = biological target: T6, MPP7, Q5T2T1
DFNB31_1, Q9P202 = biological target: T7, DFNB31_1, Q9P202
SNTA1, Q13424 = biological target: T8, SNTA1, Q13424
LIN7C, Q9NUP9 = biological target: T9, LIN7C, Q9NUP9
DLG4_2, P78352 = biological target: DLG4_2, P78352
Sequence of DLG4_2, P78352 (P78352 155-259): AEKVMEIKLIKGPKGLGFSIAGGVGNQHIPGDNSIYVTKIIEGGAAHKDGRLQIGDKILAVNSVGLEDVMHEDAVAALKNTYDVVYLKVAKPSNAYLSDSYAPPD

CASK, O14936 = biological target: CASK, O14936
Sequence of CASK, O14936 (O14936 487-570): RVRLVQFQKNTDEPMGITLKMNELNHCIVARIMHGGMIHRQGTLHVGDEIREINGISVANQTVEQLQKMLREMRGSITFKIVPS

GORASP1, Q9BQQ3 = biological target: GORASP1, Q9BQQ3
Sequence of GORASP1, Q9BQQ3 (Q9BQQ3 1-208): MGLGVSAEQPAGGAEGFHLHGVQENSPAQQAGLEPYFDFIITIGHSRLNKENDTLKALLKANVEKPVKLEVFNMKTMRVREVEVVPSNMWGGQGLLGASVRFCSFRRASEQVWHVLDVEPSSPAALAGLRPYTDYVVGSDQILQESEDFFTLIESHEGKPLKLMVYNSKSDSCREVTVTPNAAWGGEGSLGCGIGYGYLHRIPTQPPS

DFNB31_3, Q9P202 = biological target: T10, DFNB31_3, Q9P202
GRIP1_4, Q9Y3R0 = biological target: T11, GRIP1_4, Q9Y3R0
HTRA3, P83110 = biological target: T12, HTRA3, P83110
GRIP1_3, Q9Y3R0 = biological target: T13, GRIP1_3, Q9Y3R0

Row | pKd (Inadl_2, Q8NI35) | pKd (GRID2IP_1, A4D2P6) | pKd (PDZRN3_1, Q9UPQ7) | pKd (GRIP2_5, Q9C0E4) | pKd (ARHGEF11, O15085) | pKd (LIN7B, Q9HAP6) | pKd (NHERF4_2, Q86UT5) | pKd (DLG3_3, Q92796) | pKd (GIPC2, Q8TF65) | pKd (MAGI2_4, Q86UL8) | pKd (SIPA1L2, Q9P2F8) | pKd (GOPC, Q9HD26) | pKd (GORASP2, Q9H8Y8) | pKd (FRMPD4, Q14CM0) | pKd (MPP7, Q5T2T1) | pKd (DFNB31_1, Q9P202) | pKd (SNTA1, Q13424) | pKd (LIN7C, Q9NUP9) | pKd (DLG4_2, P78352) | pKd (CASK, O14936) | Binder | other results
1 | below the threshold | below the threshold | 3.83 | below the threshold | 3.68 | below the threshold | 3.55 | below the threshold | 3.61 | 4.34 | below the threshold | below the threshold | 4.51 | 3.76 | below the threshold | 4.34 | 4.17 | below the threshold | 4.72 | below the threshold | HYPASPDSWV [CTNND2, Q9UQB3] | pKd (GORASP1, Q9BQQ3): 3.93; pKd (DFNB31_3, Q9P202): below the threshold; pKd (GRIP1_4, Q9Y3R0): below the threshold; pKd (HTRA3, P83110): 5.66; pKd (GRIP1_3, Q9Y3R0): below the threshold
2 | below the threshold | below the threshold | below the threshold | below the threshold | 3.9 | below the threshold | below the threshold | below the threshold | 3.67 | 3.63 | below the threshold | 3.72 | 3.73 | below the threshold | below the threshold | 3.61 | 3.99 | below the threshold | 4.11 | below the threshold | KLQNPNQSVV [TYRP1, P17643] | pKd (GORASP1, Q9BQQ3): 3.53; pKd (DFNB31_3, Q9P202): below the threshold; pKd (GRIP1_4, Q9Y3R0): below the threshold; pKd (HTRA3, P83110): below the threshold; pKd (GRIP1_3, Q9Y3R0): below the threshold
3 | below the threshold | below the threshold | below the threshold | below the threshold | below the threshold | 3.85 | below the threshold | below the threshold | below the threshold | below the threshold | below the threshold | below the threshold | below the threshold | below the threshold | below the threshold | below the threshold | below the threshold | below the threshold | 3.64 | below the threshold | QRYPGNQTTC [CCL24, O00175] | pKd (GORASP1, Q9BQQ3): below the threshold; pKd (DFNB31_3, Q9P202): below the threshold; pKd (GRIP1_4, Q9Y3R0): below the threshold; pKd (HTRA3, P83110): 3.74; pKd (GRIP1_3, Q9Y3R0): below the threshold
4 | below the threshold | below the threshold | below the threshold | below the threshold | below the threshold | below the threshold | below the threshold | below the threshold | below the threshold | below the threshold | below the threshold | 3.7 | 3.6 | below the threshold | below the threshold | below the threshold | below the threshold | 4.06 | below the threshold | below the threshold | PKSNSSKEYV [CLDN7, O95471] | pKd (GORASP1, Q9BQQ3): below the threshold; pKd (DFNB31_3, Q9P202): below the threshold; pKd (GRIP1_4, Q9Y3R0): below the threshold; pKd (HTRA3, P83110): 3.8; pKd (GRIP1_3, Q9Y3R0): below the threshold
5 | 3.51 | below the threshold | below the threshold | below the threshold | 4.18 | below the threshold | below the threshold | below the threshold | 3.83 | 4.04 | below the threshold | below the threshold | 4.77 | 3.86 | 4.85 | below the threshold | below the threshold | below the threshold | below the threshold | 4.83 | VCMGDHWFDV [PRKN, O60260] | pKd (GORASP1, Q9BQQ3): 4.06; pKd (DFNB31_3, Q9P202): 3.54; pKd (GRIP1_4, Q9Y3R0): below the threshold; pKd (HTRA3, P83110): 4.49; pKd (GRIP1_3, Q9Y3R0): below the threshold
6 | below the threshold | below the threshold | 3.97 | below the threshold | 4.02 | below the threshold | below the threshold | 3.85 | below the threshold | 4.97 | below the threshold | 3.76 | 4.15 | 3.51 | below the threshold | 3.51 | 3.67 | below the threshold | 4.43 | below the threshold | HLSTRQGTCV [ATRNL1, Q5VV63] | pKd (GORASP1, Q9BQQ3): 3.47; pKd (DFNB31_3, Q9P202): below the threshold; pKd (GRIP1_4, Q9Y3R0): below the threshold; pKd (HTRA3, P83110): 4.45; pKd (GRIP1_3, Q9Y3R0): below the threshold
